Values belong to the substance of their own block, whether it stands above or below them.
How the values were obtained:
Experiment in all cases: cell-based or functional assay
[1] = molecular target: beta1 integrin on mammary epithelial cells (MECs) (UniProt P09055)
[2] = molecular target: hypoglycosylated dystroglycan of vector-infected MDA-MB-231 human breast cancer cells and LN18 human glioma cells (human) (UniProt Q14118)
[3] = molecular target: wild type human beta1 integrin re-expressed by retrovirus in beta1 integrin-knockout E3D1cre19 MECs (human) (UniProt P05556)
[4] = molecular target: human dystroglycan (WT DG) expressed by retrovirus in DG-knockout MEpG mammary epithelial cells (human) (UniProt Q14118)
[5] = molecular target: glycosylated dystroglycan of LARGE-expressing MDA-MB-231 human breast cancer cells and LN18 human glioma cells (human) (UniProt Q14118)

wild type human beta1 integrin re-expressed by retrovirus in beta1 integrin-knockout E3D1cre19 MECs (human), sequence (P05556 21-798): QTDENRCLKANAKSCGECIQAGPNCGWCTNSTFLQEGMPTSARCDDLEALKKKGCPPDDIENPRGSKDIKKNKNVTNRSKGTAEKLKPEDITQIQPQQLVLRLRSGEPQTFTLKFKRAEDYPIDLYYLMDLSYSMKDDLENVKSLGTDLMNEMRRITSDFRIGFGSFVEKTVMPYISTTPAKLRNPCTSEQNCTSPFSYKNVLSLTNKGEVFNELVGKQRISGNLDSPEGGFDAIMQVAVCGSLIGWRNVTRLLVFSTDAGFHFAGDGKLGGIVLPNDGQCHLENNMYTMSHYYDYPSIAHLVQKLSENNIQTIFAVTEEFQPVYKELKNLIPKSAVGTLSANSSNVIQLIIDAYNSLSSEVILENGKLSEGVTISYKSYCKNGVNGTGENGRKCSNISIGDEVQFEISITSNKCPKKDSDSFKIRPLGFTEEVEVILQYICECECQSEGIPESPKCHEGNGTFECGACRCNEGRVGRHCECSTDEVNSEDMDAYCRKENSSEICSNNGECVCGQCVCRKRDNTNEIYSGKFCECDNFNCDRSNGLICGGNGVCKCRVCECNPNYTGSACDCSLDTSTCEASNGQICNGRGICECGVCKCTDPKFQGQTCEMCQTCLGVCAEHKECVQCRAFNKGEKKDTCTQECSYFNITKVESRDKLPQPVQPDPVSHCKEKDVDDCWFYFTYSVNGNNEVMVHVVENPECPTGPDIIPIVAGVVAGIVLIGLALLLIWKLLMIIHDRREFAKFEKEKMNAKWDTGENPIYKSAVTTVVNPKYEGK
beta1 integrin on mammary epithelial cells (MECs), sequence (P09055 21-798 limits assumed): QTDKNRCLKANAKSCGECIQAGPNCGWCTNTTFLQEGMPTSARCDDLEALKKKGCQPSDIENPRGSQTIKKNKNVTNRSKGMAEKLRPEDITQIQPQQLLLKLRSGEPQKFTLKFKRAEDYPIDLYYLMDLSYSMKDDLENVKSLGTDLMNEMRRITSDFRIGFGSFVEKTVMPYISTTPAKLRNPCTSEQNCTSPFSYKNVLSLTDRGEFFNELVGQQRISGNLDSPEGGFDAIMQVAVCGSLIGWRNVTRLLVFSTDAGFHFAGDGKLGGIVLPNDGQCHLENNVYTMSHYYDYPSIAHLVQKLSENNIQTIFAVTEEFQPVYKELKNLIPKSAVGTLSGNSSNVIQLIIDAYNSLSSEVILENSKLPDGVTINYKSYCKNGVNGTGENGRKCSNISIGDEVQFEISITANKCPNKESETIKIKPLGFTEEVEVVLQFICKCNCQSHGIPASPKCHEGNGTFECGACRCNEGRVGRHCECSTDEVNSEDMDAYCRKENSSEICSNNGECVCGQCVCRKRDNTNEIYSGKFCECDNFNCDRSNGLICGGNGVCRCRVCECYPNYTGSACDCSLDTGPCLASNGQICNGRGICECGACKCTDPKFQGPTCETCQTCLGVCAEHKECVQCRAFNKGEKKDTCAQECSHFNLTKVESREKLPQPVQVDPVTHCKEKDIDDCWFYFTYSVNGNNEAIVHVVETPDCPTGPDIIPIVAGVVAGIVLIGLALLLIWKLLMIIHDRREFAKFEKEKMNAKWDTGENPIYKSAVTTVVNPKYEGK

Ln internalization, cellular fluorescence intensity of Rhod-Ln by flow cytometry, normalized to Ln alone control [1]: 36 % decrease
Substance: Hat2/5 antibody

MFI of internalized Rhod-Ln, flow cytometry, LN18 cells [2]: 0.145 MFI
MFI of internalized Rhod-Ln, flow cytometry, MDA-MB-231 cells [2]: 0.1 MFI
Substance: rhodamine-labeled laminin-111 (from UniProt P19137 25-3083; P02469 22-1786; P02468 34-1607) (ligand)

MFI of internalized laminin, flow cytometry, E3D1cre19 cells [3]: 26.8 MFI
change in laminin internalization on re-expression of WT β1 integrin in β1 int-/- cells [3]: 20 % increase
compiled MFI of internalized Rhod-Ln, DG-expressing against DG-lacking MEpG cells [4]: 4 fold
compiled mean fluorescence intensity (MFI) of internalized Rhod-Ln, flow cytometry, MEpG cells [4]: 18 MFI
laminin internalization, compiled mean fluorescence intensity flow cytometry data [4]: 380 % more
MFI of internalized Rhod-Ln, flow cytometry, LN18 cells [5]: 1.49 MFI
MFI of internalized Rhod-Ln, flow cytometry, MDA-MB-231 cells [5]: 6.82 MFI
increase in MFI of internalized laminin, LARGE-expressing against vector LN18 cells [5]: 10 fold
increase in MFI of internalized laminin, LARGE-expressing against vector MDA-MB-231 cells [5]: 68 fold
Substance: rhodamine-labeled laminin-111, P19137 25-3083; P02469 22-1786; P02468 34-1607
